Data on 72 sequences can be found in the supplement of paper PMC10567573.

± gives the standard deviation.

A short description of this data set: protein stability index of a GFP-peptide fusion (GPS, HEK-293T) (PSI 1-6); higher = more stable.
Where [1] appears, read: treatment: DMSO, c terminus: a fixed tail appended.
[2] abbreviates: treatment: MLN4924 1 uM, 8 h, c terminus: a fixed tail appended.
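Note: 24-mer peptide tiles fused after GFP, lentivirally expressed, FACS-sorted into six equal bins by GFP/DsRed ratio, decoded by Illumina sequencing, PSI is the read-weighted mean bin number.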

On to ALGNEGDTFHQDNQPSGLIRTYLG [RHOBTB3], for which the protein stability index is, setting by setting: under setting [1], 3.48 ± 0.33; under setting [2], 3.85 ± 0.37.

With LIPRTMADQQARRQERKPKDRRK [NFE2L1], the protein stability index amounted to 5.32 ± 0.22 (treatment: DMSO, c terminus: native) and 5.217 ± 0.028 (treatment: MLN4924 1 uM, 8 h, c terminus: native). VNNTTLTNSTPLRAACFDGHLEIV [FEM1C]: the protein stability index by setting is: under setting [1], 2.76 ± 0.34; under setting [2], 2.61 ± 0.38. Take SEKSQREDEEEEEGENYQKGERGE [CHGB]: the protein stability index by setting is: under setting [1], 5.48 ± 0.28; under setting [2], 5.58 ± 0.28.

NRLSELEVANKDLTERKYKGDSTI [SASS6]: the protein stability index runs as follows: under setting [1], 4.71 ± 0.38; under setting [2], 4.96 ± 0.38. The matching figures for GFWETIFGNRIKRVKLISNKGTET [PHTF1]: 1.6 ± 0.16 and 2.74 ± 0.053. Sequence GDAGSRGPMGMRGPPGPQGPPGSP [EMID1] returned a protein stability index under setting [2] of 4.54 ± 1.7. As for GQRQLMVPARDGTSCKLTDLRGVC [ADAMTSL2], the protein stability index reads like this: under setting [1], 3.08 ± 0.28; under setting [2], 3.01 ± 0.16. The sequence SFVVARYFPAGNVVNEGFFEENVL [GLIPR2] yielded a protein stability index under setting [1] of 2.11 ± 0.55 and a protein stability index under setting [2] of 2.33 ± 0.24. For the sequence CLHHVHYLATEYLETHFRDVSSTE [GAN], the protein stability index reads like this: under setting [1], 2.37 ± 0.23; under setting [2], 2.52 ± 0.54. For MSGKSPVESSLNVKTKKNAPSATI [FBXO34] the same measures were 4.5 ± 0.22 and 4.6 ± 0.12. In the case of ENVVHGHILAAEQLSRDSTLGGKA [NSDHL], the protein stability index runs as follows: under setting [1], 4.52 ± 0.11; under setting [2], 4.6 ± 0.3. AAASPYIRTKLNYNPPKDDGSTYK [GAN]: the protein stability index runs as follows: under setting [1], 3.98 ± 0.11; under setting [2], 3.79 ± 0.2. NAYHIERLMSFRPICSANHKESKM [CRYBA1] showed a protein stability index under setting [1] of 3.12 ± 0.16 and a protein stability index under setting [2] of 3.29 ± 0.12. For QDLKLFLQEPGVFSPTPPQQFQPA [FCHSD1] the same measures were 3.26 ± 0.34 and 3.55 ± 0.55. Take STFASLIGPFGGFFASGFKRAFKI [CDS2]: the protein stability index under setting [1] turned out to be 2.21 ± 0.44 and the protein stability index under setting [2] amounted to 2.37 ± 0.38. In the case of LKKSSQVPRTEAPAPASSTPQEPW [PDLIM7], the protein stability index runs as follows: under setting [1], 4.74 ± 0.3; under setting [2], 4.76 ± 0.46. The matching figures for VTQREHSSEHVTESVADLLALEEP [SLC6A17]: 5.3 ± 0.47 and 5.12 ± 0.3. Regarding GRVSKQASQPVKKQQENATSCSLE [WDR41], the protein stability index stood at 5.22 ± 0.1 under setting [1] and 5.29 ± 0.16 under setting [2]. With ILSFTVIMVGFILYCSTPTRTAEP [SLC35F2], the protein stability index by setting is: under setting [1], 3.27 ± 0.65; under setting [2], 2.77 ± 0.53. For PSDLDSTGNSLNEPEEPSEIPERR [DLC1], the protein stability index is, setting by setting: under setting [1], 5.64 ± 0.21; under setting [2], 5.62 ± 0.23. For the sequence NKYDNTCLMIAAYKGHTDVVRYLL [FEM1B], the protein stability index by setting is: under setting [1], 2.44 ± 0.66; under setting [2], 2.31 ± 0.29. For LEAVAGALVVALWGPLQDSLEHTL [TSPAN10] the same measures were 3.12 ± 0.95 and 3.57 ± 0.42. For ISPETMVALLTGKFSNIVDKFVIV [CDC25B], the protein stability index runs as follows: under setting [1], 2.29 ± 0.51; under setting [2], 2.38 ± 0.73. TGTVHRIDNTTVIYNSNIFTDPFF [KCNA1]: the protein stability index runs as follows: under setting [1], 2.89 ± 0.27; under setting [2], 3.05 ± 0.2. Regarding LFYILTFVGAIFNGLTLLILGVIG [RTN2], the protein stability index is 2.7 ± 0.85 under setting [1] and 3.01 ± 0.67 under setting [2].

Consider FGELMRKLWNPRNFKAHVSPHEML [USP39], for which the protein stability index runs as follows: under setting [1], 2.51 ± 0.43; under setting [2], 2.25 ± 0.084. For the sequence PQLAGKWQVLCMLSLCCWGWVSGQ [PCDHGC5], the protein stability index reads like this: under setting [1], 2.88 ± 0.93; under setting [2], 2.85 ± 0.43. Regarding NFSKKIQQIHVVSQFKILVSLLEN [VPS39], the protein stability index runs as follows: under setting [1], 2.64 ± 0.39; under setting [2], 2.81 ± 0.66. As to TTDPDLILEVLRSSPMVQVDEKGE [LARP4], the protein stability index by setting is: under setting [1], 4.61 ± 0.32; under setting [2], 4.73 ± 0.24. As to PGPPGPTGVPGSPGHIGPPGPTGP [EMID1], the protein stability index stood at 5.29 ± 0.11 under setting [1] and 5.13 ± 0.44 under setting [2].

Sequence APLLRWVLTLSFLVATVAVGLYAM [HMOX1] gave a protein stability index under setting [1] of 2.84 ± 0.56 and a protein stability index under setting [2] of 2.74 ± 0.69.

Sequence VHYAKVQLRFQHSQDVSDCYLELF [PLEKHN1] yielded a protein stability index under setting [1] of 2.88 ± 0.82 and a protein stability index under setting [2] of 2.76 ± 0.52. For IWTAHYDPGHCFAESRELPVRCAG [ALG2] the same measures were 2.38 ± 0.32 and 2.4 ± 0.24. As to SEEELTHIFGDLDSYIPLHEDLLT [NET1], the protein stability index runs as follows: under setting [1], 3.88 ± 0.19; under setting [2], 4.03 ± 0.33.

For the sequence RRGSWRLPYTDGLSWELLDSHLGG [CTBP1-DT], the protein stability index was found to be 2.09 ± 0.09 under setting [1] and 2.66 ± 0.26 under setting [2].

In the case of ILDDGTISAHKPLLISSCDWMAAM [RHOBTB2], the protein stability index is, setting by setting: under setting [1], 2.29 ± 0.24; under setting [2], 2.12 ± 0.19. As for FDVVVILTCSLSFLLCARSLLRGF [MCOLN1], the protein stability index reads like this: under setting [1], 3.38 ± 0.31; under setting [2], 2.98 ± 0.54. As for LEEGKHSSHEVKALGAMWKLHKSQ [TRIM9], the protein stability index reads like this: under setting [1], 3.83 ± 0.22; under setting [2], 4.22 ± 0.19. Regarding ALRQTVEADVNGLRRVLDELTLAR [KRT16], the protein stability index is, setting by setting: under setting [1], 3.18 ± 0.58; under setting [2], 3.06 ± 0.33. For WAGFMVLLMIPWGSAAKLVCYFTN [CHIT1] the same measures were 2.69 ± 0.069 and 2.11 ± 0.13. For TSYCELLQNKVPLLGSSTACIVVL [PPTC7] the same measures were 2.8 ± 0.1 and 2.55 ± 0.09.

Take PVDGARYRWQGRRWEPSGKAEPRL [TBX6]: the protein stability index by setting is: under setting [1], 3.68 ± 0.41; under setting [2], 3.86 ± 0.76. The matching figures for VAVQEQEIARREKELEARVRKPAE [FLOT1]: 5.44 ± 0.42 and 5.31 ± 0.17. Take PPLPGKALKRQLPFRGDEGIFEES [SNX12]: the protein stability index by setting is: under setting [1], 4.59 ± 0.21; under setting [2], 4.74 ± 0.22.

Sequence DIASRYPTLWTEQVKSRQNKTNKN [SMOC2] returned a protein stability index under setting [1] of 3.98 ± 0.18 and a protein stability index under setting [2] of 4.36 ± 0.33. Take LCIIWFSFELLVRFFACPSKATFS [KCNA3]: the protein stability index reads like this: under setting [1], 3.13 ± 0.39; under setting [2], 3.12 ± 0.58. The sequence DVSLCRWHPKPYCQALPYGPGYWM [FBXO34] showed a protein stability index under setting [1] of 2.33 ± 0.35 and a protein stability index under setting [2] of 2.15 ± 0.32. For TKRDSFLKRLYRAPIDWIEEYTTG [ALG2], the protein stability index stood at 2.18 ± 0.54 under setting [1] and 2.23 ± 0.4 under setting [2].

Sequence EEDDGRGRGLLRWDSFSAWLHCVC [DENND6A] yielded a protein stability index under setting [1] of 3.06 ± 0.25 and a protein stability index under setting [2] of 3.04 ± 0.29.

LLFKDLIKLFACYNDGVINLLEKF [SNAP91] gave a protein stability index under setting [1] of 3.04 ± 0.34 and a protein stability index under setting [2] of 2.81 ± 0.87. As to SFACQCPEGHVLRSDGKTCAKLDS [MATN2], the protein stability index is, setting by setting: under setting [1], 4.41 ± 0.39; under setting [2], 4.88 ± 0.27.

RTTVFQYPVGWPPVQELPPSLRAP [ZMAT5] had a protein stability index under setting [1] of 2.8 ± 0.17 and a protein stability index under setting [2] of 2.79 ± 0.29. IKEVVEKREACHCEEVKMTVASEA [FAN1]: the protein stability index was 4.89 ± 0.25 under setting [1] and 4.95 ± 0.17 under setting [2]. For YTSELYPTVIRNVGLGTCSMFSRV [SLC22A15] the same measures were 2.13 ± 0.82 and 1.77 ± 0.12. In the case of NEQVLTTEHEKKQKLETDAMFRLE [YJU2B], the protein stability index was determined as 5.43 ± 0.15 under setting [1] and 5.43 ± 0.19 under setting [2]. For LATRSNEKQELQELNDRFANFIEK [PRPH] the same measures were 4.43 ± 0.25 and 4.37 ± 0.095. For RERQRRLEVEREAEKKREAKQRAK [LRRC59] the same measures were 5.22 ± 0.29 and 5.43 ± 0.06. On to PEGTENPLGVDESLFSYGLRESIA [SLA], for which the protein stability index reads like this: under setting [1], 4.04 ± 1.1; under setting [2], 4.19 ± 0.1. Turning to CMPLVCTAIFYTLMTCEMLNRRNG [EDNRA], the protein stability index is 3.29 ± 0.24 under setting [1] and 3.58 ± 0.93 under setting [2].

As to YTGEIKISENLDYEETGFYEIEIQ [PCDHGA10], the protein stability index reads like this: under setting [1], 2.97 ± 0.18; under setting [2], 2.87 ± 0.46. On to MASPPRCSPTAHDRECKLPPPSAP [WDR88], for which the protein stability index is, setting by setting: under setting [1], 4.67 ± 0.25; under setting [2], 4.83 ± 0.24.

Take HSFNFVLSANLHGGAVVANYPYDK [CPN1]: the protein stability index under setting [1] turned out to be 2.19 ± 0.44 and the protein stability index under setting [2] was 2.4 ± 0.2. As to AVAHMKYMGKGSMTGLALKHMFER [MATN2], the protein stability index worked out at 2.07 ± 0.3 under setting [1] and 2.34 ± 0.26 under setting [2]. The matching figures for LHRGQLSLFCLEDKELLCCSCQAD [TRIM35]: 2.68 ± 0.1 and 2.79 ± 0.31. For IMATLGFGDSPKAEKRQIGDQEGP [FBF1], the protein stability index runs as follows: under setting [1], 4.37 ± 0.17; under setting [2], 4.3 ± 0.12.

As to AIEHFQPNADLLFSDPSQSDPETK [FCHO1], the protein stability index by setting is: under setting [1], 5.5 ± 0.074; under setting [2], 5.44 ± 0.25. The matching figures for ADFEQKMLDSALRFQAMEETHLRH [FCHO1]: 3.88 ± 0.29 and 3.93 ± 0.24.

As to RRDAETWFLSKTEELNKEVASNSE [KRT16], the protein stability index was 5.09 ± 0.35 under setting [1] and 5.19 ± 0.12 under setting [2]. As for PFREILCKKLHIPLKAQNDLDISR [P2RY14], the protein stability index is, setting by setting: under setting [1], 2.39 ± 0.12; under setting [2], 2.46 ± 0.29. The matching figures for GCWATDAAPAAGLCGAGSEPSIAP [RSPH3]: 4.26 ± 0.25 and 4.41 ± 0.07. Consider AGTGAQAGQLMGFFKGIDQDIERG [LYSMD4], for which the protein stability index is, setting by setting: under setting [1], 4.01 ± 0.37; under setting [2], 4.01 ± 0.29.
